Results taken from patent US9371519B2, “Complex type sugar chain hydrolase” (National Institute of Advanced Industrial Science and …, priority 2011, dated 2016).

B1: Endo-Cp: endo-β-N-acetylglucosaminidase from Candida parapolymorpha DL-1 ATCC26012, amino acid sequence SEQ ID NO. 5, 745 amino acids (protein, listed as Candida parapolymorpha)
chain: MPRNTAKHSSLPQTNLPLSSLESSFFDSLDELANWERRIHEKSFELDELNKPTEKLAHYTRARQQSTSEDVKLLVCHDLKGGYQVNEDEDPLGYFPHPDGQHYFLQYPQLVDKFVYFSHHRVSIPPVSWINVCHRNAIKCLGTVIFEGNTYRDFEEADKLLTKQDGEYVFVRCLVALVEYFQFDGYLFNIETRFSNTRIASLLEPFLEQLRAELHVRNPSTELIWYDSYIYPENRVLYKNGVTEANYNFFSCCDSFFTNYWWNVKHLQDNIKNVGVLGSRLKVYAGYDVWGRGTMIGKGGYDSALACQMIKKYRSNVALFAPAWTYEYLARKDFTQNDTRFWIGLFDGESSMATTFKPYSSPLYKINDSNFVFYTNFGSGEGCAFYECGEKVYRDNWVNGSLQMEIPYAIHTRNKNGIQWTLSKEDSFHGGSCVEIKYNEVVDDKGYQVFNNQTINSFSLFSFVQDCSFPTVNVKLTYKLNHKTKSFFKLKIGYYIERRYRTVQKVRSGCLVVPLLSTNDQWFTIEEPFHVSLQNSHEFIVLDSATIFYEETEDPFMRAHVVEDQSTSSVIDNEEYEKLMNSEIYFDDEDEDWILVPSDISMESTDNGGRENHTWKVISNQIRKKHPKSHPSTSPVLKLGELAIINANDYPSDSFFKLMPVNSIDVRRWEGKILLIWKTNQDSVLYHLIFVDDVFQGISLVSKFVFEDQAVDEKSFKTKSGGSTKVRIDTVNRLGILVKGTDM
B2: Endo-Om: endo-β-N-acetylglucosaminidase from methylotrophic yeast Ogataea minuta IFO10746, amino acid sequence SEQ ID NO. 1, 772 amino acids (protein, listed as Ogataea minuta)
chain: MAQSQLLGGAVRPVFFDKLEELRRWHTQSANLSRESELDSLNVATEPFSSYERAQTGSGSRSSEPVPGDKEDPPIKLMVCHDFKGGYQDYEDAQPLGYFPHPTGSRYFLQYPQLIDQFVYFSHHRVTVPPVNWINFCHRNGIKCFGTVIFEGNASKDFEELDRLVSRDEKGDFVFVDALIKLAAHYGFDGYLLNIETTFSNTKIAADLEPFAEQLKSGLHCLDSKNELIWYDSYVFPANKVSYTNGVTESNYNFFSLSDAFFSNYWWNIKNLQENIKNVGVLGVQKKIYVGYDVWGRGTLVGKGGFDSSLACKMIAKFKSNVALFAPAWTYESLGPKDFNQNDARFWIGLFENESSISSTVPPHSSAVYKINESSFIFYTNFSSGEGNRFFSKGSEVYRKNWVNGSLQFDLPIDLHRKDKNGLQWALDKSDAFHGGACLEIKYSEIKDENGYQIFNNQMVSDFTLFNFTKECHFPTVNVKVTYKLNHKTKSTFKIKIKYIIERRFRSVQTVRTGYLTIPLLSTSGKWFTVEESFQINLQTSHEYIVLESAHVTYDEDRSADSFFRSYIVEDSAITSVIDNEEYEKLINSEIYNDDEDEDWILVPSDVSISSSESQSNDSKTQYLGRKLFGNKSTPKTRTLEGTAPLLRIGEFAIISANNYPSSNFLAVTSVKSIESSRLEGDSLVLLNWQVGEGHQKGVCYYIIYVNGAVVGLSVAPKFIYQDTELASENSASARSNYKKSGLGSSSDRKSKVRVDSVDKLGNVFTGSEVWV

Assay: Enzyme activity measurement with NGA2-Asn-Fmoc by HPLC (specific activity, Km, Vmax)
Assay type: biochemical
Details: for Specific activity: 1 mM NGA2-Asn-Fmoc as substrate
Description: The enzyme activity was measured as follows. A reaction solution (total volume: 10 μl) containing 100 mM of a sodium acetate buffer (pH 5.3) at the final concentration, 0.5 M NaCl, 10 μM of a Fmoc-labeled biantennary complex type sugar chain (NGA2-Asn-Fmoc), […], and heated at 95° C. for 5 minutes, thereby stopping the enzyme reaction. The reaction solution was subjected to HPLC, and the enzymatic activity was calculated from the peak area ratio between the NGA2-Asn-Fmoc as the substrate and its hydrolysate. The column was Asahipak NH2P-50 4E (4.6.250 mm, Shodex), and the solvents were acetonitrile (solvent A) and 200 mM of TEAA (pH 7.0, GLEN RESEARCH: solvent B). Isocratic elution was carried out at a flow rate of 1.0 ml/min, and the solvent B: 43%, and detection was carried out using a fluorescence detector (excitation wavelength 265 nm, and fluorescence wavelength 315 nm). The activity hydrolyzing […] of NGA2-Asn-Fmoc in 1 minute under the above-described reaction conditions was defined as 1 Unit of the enzymatic activity of Endo-Om.
The properties of Endo-Om were studied using a purified enzyme solution. According to the method described in Example 4, the Endo-Om crude enzyme solution prepared from 100 ml culture was substituted with an equilibration buffer (20 mM sodium phosphate buffer (pH 7.4), 0.5 M NaCl, 0.5 mM PMSF, 50 mM imidazole) by dialysis. The Endo-Om crude enzyme solution after dialysis was subjected to a HisTrap HP column (GE Healthcare), washed with the equilibration buffer, and eluted stepwise by an equilibration buffer containing 50 mM, 100 mM, and 200 mM of imidazole, thereby eluting the protein. The fraction containing Endo-Om eluted from the column was subjected to ultrafiltration concentration using Amicon Ultra (50,000 NMWL, Millipore), further dialyzed with 20 mM of sodium phosphate buffer (pH 7.4) and 0.5 M of NaCl, and glycerol was added to make the final concentration 10%, thereby making an Endo-Om purified enzyme solution. According to the method described in Example 4, the activity of the Endo-Om purified enzyme solution when the substrate concentration was 1 mM was measured, and the specific activity was calculated. In addition, activity measurement was carried out using NGA2-Asn-Fmoc at different concentrations as the substrates, and Km and Vmax were calculated. For comparison, the specific activity, Km, and Vmax of the commercially available Endo-M were calculated by the same method. The optimal pH of Endo-M is 6.0 (Non Patent Literature 6), so that the pH of the sodium acetate buffer was made 6.0 when measuring the activity of Endo-M.
The enzyme activity was measured as follows. A reaction solution (total volume: 10 μl) containing 100 mM of a sodium acetate buffer (pH 5.3) at the final concentration, 0.5 M NaCl, 10 μM of a Fmoc-labeled biantennary complex type sugar chain (NGA2-Asn-Fmoc), and Endo-Cp was incubated at 30° C. for 3 hours, and heated at 95° C. for 5 minutes, thereby stopping the enzyme reaction. The reaction solution was subjected to HPLC, and the enzymatic activity was calculated from the peak area ratio between the NGA2-Asn-Fmoc as the substrate and its hydrolysate. […] Isocratic elution was carried out at a flow rate of 1.0 ml/min, and the solvent B: 43%, and detection was carried out using a fluorescence detector (excitation wavelength 265 nm, and fluorescence wavelength 315 nm). […]
The enzyme activity was measured as follows. […]

Row | Molecule | Specific activity of partially purified enzyme solution (10 μM NGA2-Asn-Fmoc as substrate, pH 5.3, 30° C.) [μUnit/mg] | Specific activity (purified Endo-Om) [µmol/min/mg] | Specific activity (purified Endo-Om (pH 5.3), commercially available Endo-M (pH 6.0)) [µmol/min/mg] | Km relative to the Km of Endo-M (NGA2-Asn-Fmoc) [times] | Vmax relative to the Vmax of Endo-M (NGA2-Asn-Fmoc) [times]
1 | B1 | 120 | – | – | – | –
2 | B2 | – | 0.8 | 0.80 | 31 | 55
